Results: patent US20100249038A1, “ANTAGONISTS OF THE RECEPTOR FOR ADVANCED GLYCATION END-PRODUCTS (RAGE)” (Board of Regents, University of Texas System, priority 2007, published 2010)
Non-standard residues stand in square brackets, D forms with d.

Assays:
[1] = molecular target: T1, RAGE (sRAGE, extracellular domain) (Homo sapiens, UniProt Q15109); experiment: ELISA of amphoterin (HMGB1) binding to coated sRAGE; conditions: amphoterin 0-100 ng; FIG. 9; p<0.05 versus HMGB1 alone
T1 construct: the extracellular domain of RAGE peptide (sRAGE) was coated onto the ELISA plate
T1 sequence (Q15109 23-342 limits assumed): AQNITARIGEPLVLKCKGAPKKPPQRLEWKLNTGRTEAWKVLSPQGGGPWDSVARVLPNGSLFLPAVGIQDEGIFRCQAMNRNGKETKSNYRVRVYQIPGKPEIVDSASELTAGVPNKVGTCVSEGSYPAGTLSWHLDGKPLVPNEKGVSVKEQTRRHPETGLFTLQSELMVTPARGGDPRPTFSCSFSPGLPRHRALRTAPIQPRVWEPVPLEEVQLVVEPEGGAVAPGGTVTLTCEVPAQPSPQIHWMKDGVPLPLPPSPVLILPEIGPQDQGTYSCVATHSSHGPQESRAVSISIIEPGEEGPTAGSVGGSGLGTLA
Description: S100P peptide antagonists having the sequence Ac-ELKVLMEKEL-NH2 were made with standard L isomers of amino acids. This peptide antagonist comprises the amino acid sequence referred to as SEQ ID NO: 1 (ELKVLMEKEL), and in this instance the termini were blocked to prevent and/or reduce degradation. The inverse sequence, Ac-LEKEMLVKLE-NH2 was produced using D isomers of amino acids. This peptide antagonist comprises the amino acid sequence referred to as SEQ ID NO: 4 (LEKEMLVKLE), and in this instance the termini were blocked to prevent and/or reduce degradation. D isomers of amino acids, which are not naturally occurring, are thought to provide prolonged half-life in vivo. […] For this study, the extracellular domain of RAGE peptide (sRAGE) was coated onto the ELISA plate for 1 hour and non-specific binding sites were blocked with 1% BSA for 15 minutes. Amphoterin (0-100 ng) was added and incubated for 1 hour to allow its binding to its receptor and unbound molecules were removed by washing. Primary antibody against amphoterin and secondary antibody labeled with HRP and subsequently substrate for HRP was used to detect bound amphoterin with its receptor sRAGE. […] A control peptide of the same size had no effect. *=p<0.05 versus HMGB1 alone.
Inhibition of the binding of amphoterin to RAGE by antagonist peptides was tested using an in vitro ELISA based binding assay. […]

[2] = molecular target: T1, RAGE (sRAGE, extracellular domain); experiment: ELISA of S100P binding to coated sRAGE; conditions: FIG. 10
[3] = molecular target: T1, RAGE (sRAGE, extracellular domain); experiment: ELISA of S100A4 binding to coated sRAGE; conditions: FIG. 10
[4] = tested on: S100P induced NFκB activity in pancreatic cancer MPanc-96 cells; experiment: S100P induced NFκB-Luc reporter activity in MPanc-96 cells; type: cell-based; conditions: pre-treatment with peptide, FIG. 11
Description: MPanc-96 pancreatic cancer cells were stably transfected with a reporter plasmid, NFκB-Luc reporter, that provides a quantifiable photon output based on NFκB transcriptional activity. Extracellular addition of S100P to the cells induced the NFκB activity, which has previously been proven to be mediated through interaction with RAGE. Pre-treatment of the cells with S100P peptide antagonists (L-peptide and D-peptide), block S100P binding with its receptor RAGE, thus blocking S100P induced NFκB activity. Results of this assay are depicted in FIG. 11.

[5] = tested on: NFκB activity in subcutaneous MPanc-96 tumors; experiment: NFκB-Luc activity in subcutaneous MPanc-96 tumors after intratumoral injection; type: in vivo, nude mice; conditions: 10 mg/kg b.wt intratumorally, measured after 4 hours; FIG. 12
Description: S100P peptide antagonists (L-peptide and D-peptide) block NFκB activity in vivo in subcutaneous tumors. MPanc-96 pancreatic cancer cells stably transfected with the NFκB-Luc reporter were injected into nude mice subcutaneously (1×10^6) and in vivo NFκB activity indicated by luciferase was measured using an IVIS-100 bioluminescence system. S100P peptide antagonists (L-peptide and D-peptide) (10 mg/kg·b·wt) were injected intratumorally and NFκB activity was measured after 4 hours. […] Thus, delivery of peptide antagonists by direct injection in subcutaneous tumors inhibits NFκB as an indirect read-out of RAGE.

[6] = tested on: NFκB activity in orthotopic MPanc-96 tumor; experiment: NFκB-Luc activity in orthotopic MPanc-96 tumors after intraperitoneal injection; type: in vivo; conditions: 10 mg/kg b.wt intraperitoneally, measured after 4 hrs; p<0.05; FIG. 13
Description: MPanc-96 pancreatic cancer cells stably transfected with the NFκB-Luc reporter were injected orthotopically into the pancreas (1×10^6), and NFκB activity indicated by luciferase activity was measured after two weeks. S100P peptide antagonists (L-peptide and D-peptide) (10 mg/kg·b·wt) were injected intraperitoneally and NFκB activity in the orthotopic tumor was measured after 4 hrs.

[7] = tested on: NFκB activity stimulated by S100P in Panc-1 cells; experiment: NFκB luciferase reporter activity stimulated by S100P in Panc-1 cells; type: cell-based; conditions: S100P 100 nM, peptide 1 μg/ml, 4 hours, FIG. 7B
Description: (§1) The effect of these novel peptide antagonists was evaluated on NFκB activity stimulated by S100P in Panc-1 cells. Panc-1 cells stably expressing the NFκB luciferase reporter gene were treated with or without S100P (100 nM) and either peptides of SEQ ID NOs: 1, 2 or 3 (1 μg/ml) for 4 hours. NFκB activity was estimated using luciferase quantitation. Numbers represent means±SE of triplicate determinations. * vs S100P alone (p<0.05); # vs control (p<0.05). Furthermore, administration of peptide of SEQ ID NO: 1 but not SEQ ID NO: 3 inhibited basal NFκB activity in S100P expressing BxPC3 cell tumors when administered in vivo as shown in FIG. 8. BxPC3 cells stably expressing an NFκB luciferase reporter were transplanted to scid mice and tumors were allowed to form. Animals were then injected i.p. with either peptide of SEQ ID NO: 1 (FIG. 8A) or SEQ ID NO: 3 (FIG. 8B). Imaging of luciferase activity was performed before and 24 h after peptide delivery. […] Numbers represent means±SE of triplicate determinations. *=p<0.05 vs time 0.

[8] = molecular target: T2, RAGE (Homo sapiens, UniProt Q15109); experiment: ELISA-type assay of purified S100P binding to coated purified RAGE; set-up: Purified RAGE was coated into culture wells; conditions: peptides 50 μM; FIG. 7A; preliminary studies
Description: The binding of purified S100P to RAGE was evaluated using an ELISA technique. Purified RAGE was coated into culture wells, S100P was allowed to bind in the presence and absence of the peptides (50 μM), the dishes were extensively washed, and bound S100P was detected with a specific antibody coupled to HRP.
Target sequence in this assay (Q15109 23-342): as the sequence (Q15109 23-342 limits assumed) above

[9] = tested on: NFκB activity in S100P expressing BxPC3 cell tumors; experiment: Basal NFκB luciferase activity in BxPC3 cell tumors in vivo after i.p. peptide; conditions: BxPC3 tumors in scid mice, 24 h after peptide delivery vs time 0, FIG. 8
Description: as §1

[10] = tested on: human umbilical vein endothelial cells (HUVECs); experiment: HUVEC cell number after S100P treatment (MTS); type: cell-based; conditions: S100P treatment for 48 hrs vs uninduced bacterial protein; FIG. 4A
Description: (§2) S100P is secreted by pancreatic cancer cells and acts in an autocrine manner to stimulate their growth, survival, and invasiveness. Thus, S100P could also interact with receptors on cells within the microenvironment. The effects of S100P on human umbilical vein endothelial cells (HUVECs) in vitro were examined. […] HUVEC cells were cultured in the presence of either S100P or uninduced bacterial protein for 48 hours and the number of cells was estimated using MTS. […] Tumors formed with BxPC3 cells were harvested and frozen sections were stained for CD31 staining with the help of the Cancer Biology Histology core. Microvessels bearing CD31 are stained brown. […] HUVEC cells were plated on Matrigel and followed for 4 hours. After this time, control cells mostly remained individually isolated while a few cells began to migrate and align themselves and occasional sprouting was observed. At 4 hrs, cells treated with S100P had mostly migrated aligned themselves, sprouted, formed closed polygons and a complex mesh like structure had developed.

[11] = tested on: human umbilical vein endothelial cells (HUVECs); experiment: HUVEC migration and alignment on Matrigel; type: cell-based; conditions: 4 hours, FIG. 4C
Description: as §2

[12] = molecular target: T2, RAGE; experiment: Co-immunoprecipitation of RAGE with S100P from pancreatic cancer cell lysates; type: binding; set-up: endogenous in cells; host or cells: MiaPaca2, BxPC3 (and Panc-1, printed 'Panel') cell lysates; conditions: S100P 100 ng, 16 hours at 4° C., FIG. 5
Description: As a direct indication of this interaction, lysates from Panel, and MiaPaca2 cells were incubated with S100P and S100P was then immunoprecipitated. RAGE was not present in the samples run without addition of S100P or S100P antibody (lanes A-C), but RAGE was present when both these reagents were included (lanes D-F). […] In these experiments MiaPaca2 (A-D) and BxPC3-1 (E) cell lysates were incubated in the presence of S100P (100 ng) for 16 hours at 4° C. before immunoprecipitation with anti-S100P monoclonal antibodies (IP-S100P) (+) or control IgG (−) and RAGE was identified in the immunoprecipitates by western blotting with an anti-RAGE antibody (IB-RAGE).
Target sequence in this assay (Q15109 23-404): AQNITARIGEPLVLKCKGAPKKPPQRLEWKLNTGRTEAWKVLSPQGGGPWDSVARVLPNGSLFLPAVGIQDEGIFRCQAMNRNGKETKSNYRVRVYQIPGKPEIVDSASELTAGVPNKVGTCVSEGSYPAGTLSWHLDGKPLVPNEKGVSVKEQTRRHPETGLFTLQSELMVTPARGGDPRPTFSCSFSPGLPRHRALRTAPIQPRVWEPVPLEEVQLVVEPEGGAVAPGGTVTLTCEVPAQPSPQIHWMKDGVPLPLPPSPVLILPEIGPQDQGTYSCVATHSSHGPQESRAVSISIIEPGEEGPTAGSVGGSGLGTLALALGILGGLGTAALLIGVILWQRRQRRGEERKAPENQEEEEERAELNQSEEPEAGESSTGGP

Row | Molecule | block of amphoterin (HMGB1) binding to RAGE [1] | block of S100P binding to RAGE [2] | block of S100A4 binding to RAGE [3] | block of S100P induced NFκB activity [4] | reduction in NFκB activity in subcutaneous tumors [5] | inhibition of cancer cell NFκB activity in orthotopic tumor [6] | block of the activation of NFκB by S100P [7] | block of the interaction of S100P with RAGE [8] | inhibition of basal NFκB activity in tumors in vivo [9] | also measured
1 | Ac-ELKVLMEKEL-NH2 (listed as Homo sapiens) [L-peptide] | competed with amphoterin and blocked its ability to bind with RAGE | compete for binding of S100P | blocked | block S100P induced NFκB activity | strong reduction in NFκB activity | significant inhibition of cancer cell NFκB activity |  |  |  | 
2 | Ac-LEKEMLVKLE-NH2 (Ac-[dL][dE][dK][dE][dM][dL][dV][dK][dL][dE]-NH2; SMILES CSCC[C@@H](NC(=O)[C@@H](CCC(=O)O)NC(=O)[C@@H](CCCCN)NC(=O)[C@@H](CCC(=O)O)NC(=O)[C@@H](CC(C)C)NC(C)=O)C(=O)N[C@H](CC(C)C)C(=O)N[C@@H](C(=O)N[C@H](CCCCN)C(=O)N[C@H](CC(C)C)C(=O)N[C@H](CCC(=O)O)C(N)=O)C(C)C; listed as Homo sapiens) [D-peptide] | competed with amphoterin and blocked its ability to bind with RAGE | compete for binding of S100P | blocked | block S100P induced NFκB activity | strong reduction in NFκB activity | significant inhibition of cancer cell NFκB activity |  |  |  | 
3 | KELPGFLQSGKDKD (listed as Homo sapiens) [SEQ ID NO: 2] |  |  |  |  |  |  | not | not |  | 
4 | GKDGDAVDKLLKD (listed as Homo sapiens) [SEQ ID NO: 3, b142 prints …] |  |  |  |  |  |  | could also block the activation of NFκB by S100P | could block the interaction of S100P with RAGE | did not | 
5 | ELKVLMEKEL (listed as Homo sapiens) [SEQ ID NO: 1] |  |  |  |  |  |  | could also block the activation of NFκB by S100P | could block the interaction of S100P with RAGE | caused a significant reduction in NFκB activity | 
6 | S100P: S100 family calcium-binding protein, RAGE ligand, added exogenously as purified protein (protein, UniProt P25815 1-95, looked up) Protein S100-P: MTELETAMGMIIDVFSRYSGSEGSTQTLTKGELKVLMEKELPGFLQSGKDKDAVDKLLKDLDANGDAQVDFSEFIVFVAAITSACHKYFEKAGLK |  |  |  |  |  |  |  |  |  | HUVEC cell numbers [10]: significant increase in HUVEC cell numbers; endothelial cell migration and alignment [11]: increased endothelial cell migration and alignment; direct interaction with RAGE (RAGE in S100P immunoprecipitates) [12]: able to interact directly with RAGE
